Laboratory results reported in PMC12147180.

Key:
CCR9-RlucII (human) [1] = target: CCR9-RlucII (human) (UniProt P51686)
CCR9 ΔCT (human) = CCR9 ΔCT (human) (UniProt P51686)
[2] = target: CCR9 C1 (CCR9-RlucII with S335A/T347A/S352A/S356A/S357A) (human) (UniProt P51686)
[3] = target: CCR9 C1 + C2 (CCR9-RlucII with all C-tail phosphorylation sites changed to alanine) (human) (UniProt P51686)
CCR9-RlucII (human) [4] = target: CCR9-RlucII (human) (UniProt P51686); remark: listed apart in the source

Gαi-Nluc, sequence (P63096 whole entry): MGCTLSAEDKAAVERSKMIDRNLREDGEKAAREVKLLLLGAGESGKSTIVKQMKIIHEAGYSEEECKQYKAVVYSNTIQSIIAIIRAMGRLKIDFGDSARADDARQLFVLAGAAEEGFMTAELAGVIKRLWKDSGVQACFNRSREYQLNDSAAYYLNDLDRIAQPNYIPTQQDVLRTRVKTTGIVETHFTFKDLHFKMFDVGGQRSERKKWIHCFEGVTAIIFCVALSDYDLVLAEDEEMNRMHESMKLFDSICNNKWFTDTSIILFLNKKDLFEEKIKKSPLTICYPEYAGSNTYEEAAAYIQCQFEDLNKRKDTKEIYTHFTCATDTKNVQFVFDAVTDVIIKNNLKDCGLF
Gαq-Nluc, sequence (P50148 whole entry): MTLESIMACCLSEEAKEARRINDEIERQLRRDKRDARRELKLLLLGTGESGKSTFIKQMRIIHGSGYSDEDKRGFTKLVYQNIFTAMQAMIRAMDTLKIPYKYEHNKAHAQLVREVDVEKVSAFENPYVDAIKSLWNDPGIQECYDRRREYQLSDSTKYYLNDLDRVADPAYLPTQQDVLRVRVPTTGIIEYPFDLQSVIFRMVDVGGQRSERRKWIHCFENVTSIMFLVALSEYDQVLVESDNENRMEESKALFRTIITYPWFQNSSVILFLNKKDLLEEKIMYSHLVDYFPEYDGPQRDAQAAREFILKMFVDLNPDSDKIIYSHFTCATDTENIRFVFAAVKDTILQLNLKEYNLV

decrease in BRET between Gαi-Nluc and Gβγ-smV (G protein dissociation) in HEK293 cells with untagged CCR9, 100 nM CCL25; returns to basal levels within 10 min (CCR9-RlucII (human) [1]) [%]	area over the Gαi–Gβγ dissociation curve (AOC), against CCR9 WT (CCR9 ΔCT (human)) [fold]	maximal decrease in BRET between Gαi-Nluc and Gβγ-smV (G protein dissociation) in HEK293 cells, 100 nM CCL25 (CCR9 ΔCT (human)) [%]	Gαi-Nluc/Gβγ-smV dissociation BRET (AOC) in HEK293 cells with untagged CCR9 C1, 100 nM CCL25, against CCR9 WT [2] [fold]	Gαi-Nluc/Gβγ-smV dissociation BRET (AOC) in HEK293 cells with untagged CCR9 C1 + C2, 100 nM CCL25, against CCR9 WT [3] [fold]	area over the Gαq–Gβγ dissociation curve (AOC), against CCR9 WT (CCR9 ΔCT (human)) [fold]	maximal decrease in BRET between Gαq-Nluc and Gβγ-smV (G protein dissociation) in HEK293 cells, 100 nM CCL25 (CCR9 ΔCT (human)) [%]	decrease in BRET between Gαq-Nluc and Gβγ-smV (G protein dissociation) in HEK293 cells with untagged CCR9, 100 nM CCL25 (CCR9-RlucII (human) [4]) [%]	Substance
2	6	7	2	2				Gαi-Nluc (from UniProt P63096 1-354) (natural protein)
					4	5	0	Gαq-Nluc (from UniProt P50148 1-359) (natural protein)
